Results reported in paper PMC7570871, “Evaluation of a New ^177Lu-Labeled Somatostatin Analog for the Treatment of Tumors Expressing Somatostatin Receptor Subtypes 2 and 5” (Molecules, 2020).
Like-named read-outs stand apart in the source and are kept apart here.

Experiments:
human SST2 [1] = target: T1, human SST2 (Homo sapiens, UniProt P30874); design: method as in PMID 32757150; conditions: HEK-SST2 membranes, 125I-SS-14 radioligand; cited from earlier work
T1 construct: expressed in transfected cells; host or cells: HEK cells (HEK-SST2), stably transfected
T1 sequence (P30874 whole entry): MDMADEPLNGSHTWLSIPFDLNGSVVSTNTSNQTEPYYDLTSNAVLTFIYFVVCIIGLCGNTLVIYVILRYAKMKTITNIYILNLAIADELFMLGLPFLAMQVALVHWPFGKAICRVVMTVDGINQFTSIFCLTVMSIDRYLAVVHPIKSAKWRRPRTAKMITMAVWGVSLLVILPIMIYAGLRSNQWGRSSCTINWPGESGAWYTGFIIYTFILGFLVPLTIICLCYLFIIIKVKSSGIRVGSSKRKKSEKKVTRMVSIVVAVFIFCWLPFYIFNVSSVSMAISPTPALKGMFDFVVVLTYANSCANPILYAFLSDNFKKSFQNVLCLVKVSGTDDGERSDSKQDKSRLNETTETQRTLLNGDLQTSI

human SST2 [2] = target: T1, human SST2; assay: Competition binding assay with 125I-SS-14 on membranes of HEK-SST2 cells; conditions: 125I-SS-14 radioligand
Experimental: Human Embryonic Kidney (HEK) cells were stably transfected with plasmids encoding the human SST2 and SST5 (HEK-SST2 and HEK-SST5) and cultivated as previously described. […] Nontransfected HEK cells were used as negative control.
Binding assays were performed as described previously.

Compound | IC50 (human SST2 [1]) [pM] | IC50 (human SST2 [2]) [pM]
^natGa-DOTA-NOC: natGa complex of DOTA-NOC, values from | 700 | –
(4-amino-3-iodo)-D-Phe-c[Cys-(3-iodo)-Tyr-D-Trp-Lys-Val-Cys]-Thr-NH2 [ST8950] | 280 | –
CC(C)[C@@H]1NC(=O)[C@H](CCCCN)NC(=O)[C@@H](Cc2c[nH]c3ccccc23)NC(=O)[C@H](Cc2ccc(O)c(I)c2)NC(=O)[C@@H](NC(=O)[C@@H](Cc2ccc(N)c(I)c2)NC(=O)CN2CCN(CC(=O)O)CCN(CC(=O)O)CCN(CC(=O)O)CC2)CSSC[C@@H](C(=O)N[C@H](C(N)=O)[C@@H](C)O)NC1=O [^natLu-DOTA-ST8950, metal not drawn] | – | 370
